System: MS2 coat protein
Assay: apparent KD of MS2 coat protein; designed switch direction (-1 OFF switch, 1 ON switch): -1; higher = weaker reporter binding
Method in brief: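 An oligonucleotide input, 200 uM small-molecule ligand, or no input was present during titration of SNAP-549-labelled MS2 coat protein, which was doubled from 0.7 or 1.5 nM to 3 µM. Designed RNA switches had been transcribed on Illumina chips by stalled E. coli RNA polymerase. Apparent KD per design is the median over clusters of curves fitted to normalised cluster fluorescence.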

[1] = input ligand: microRNA oligo, concentration not stated
[2] = Eterna round: R95, input ligand: microRNA oligo, concentration not stated
[3] = Eterna round: R95, input ligand: FMN 200 uM
[4] = Eterna round: R95, input ligand: none

Row | Sequence | apparent KD of MS2 coat protein (input ligand: FMN 200 uM) [nM] | apparent KD of MS2 coat protein (input ligand: none) [nM] | apparent KD of MS2 coat protein [2] [nM] | also measured
1 | AUAAUGUAAGGAUAUCAGUCGACUAGCCUCGGCUAGUCGACUGAGAAGGUACAUGAGGAUCACCCAUGUGAUUA [E4/10-A2] (Eterna round: R97, puzzle: Exclusion 4) | 762 | 191 | – | –
2 | AUAAUGUAAGGAUAUCAGUCGUACAGCCUCGGCUGUACGACUGAGAAGGUACAUGAGGAUCACCCAUGUGAUCA [E4/8-A2] (Eterna round: R97, puzzle: Exclusion 4) | 98.4 | 1200 | – | –
3 | AUAAUGUAAGGAUAUCAGUCGUACAGCUUCGGCUGUACGACUGAGAAGGUACAUGAGGAUCACCCAUGUGGUCA [E4/9-A1] (Eterna round: R97, puzzle: Exclusion 4) | 52.2 | 886 | – | –
4 | AUAAUGUCAGGAUAUACUAAUGAUGAAUGAUUAGACAUUAUGUAGAAGGGACAUGAGGAUCACCCAUGUAAUAU [EX4 #2] (Eterna round: R97, puzzle: Exclusion 4) | 39.9 | 26.8 | – | –
5 | AUAAUGUCAGGAUAUCAGUCGACUAGCUGCGGCUAGUCGACUGAGAAGGGACAUGAGGAUCACCCAUGUGUUUC [E4/14-A3] (Eterna round: R97, puzzle: Exclusion 4) | 475 | 367 | – | –
6 | AUAAUGUGAGGAUAUCAGUCGACUAGCGAUAGCUAGUCGACUGAGAAGGCACAUGAGGAUCACCCAUGUGUUUC [E4/15-A4] (Eterna round: R97, puzzle: Exclusion 4) | 44.4 | 16.8 | – | –
7 | AUAAUGUGAGGAUAUCAGUCGACUAGCUGCGGCUAGUCGACUGAGAAGGUACAUGAGGAUCACCCAUGUGGUUC [E4/11-B3] (Eterna round: R97, puzzle: Exclusion 4) | 904 | 434 | – | –
8 | AUAAUUAAUGCAGGAUAUCAGCACGUGUAGUGCUGAGAAGGGCACAUGAGGAUCACCCAUGUGAUCAAUUAAUAUUAAUAUUAU [ENG1/11-D3] (Eterna round: R96, puzzle: Exclusion NG 1) | – | – | – | apparent KD of MS2 coat protein [1]: 48.4 nM
9 | AUACAGGAAGGAUAUACAUGAGGAUCACCCAUGUAGGAAAACCUACCAAAAGACCCAAGUAGAAGGUCCGAUAC [jl-ex3-4.74 ViennaUCT mod] (Eterna round: R97, puzzle: Exclusion 3) | 21.8 | 19.4 | – | –
10 | AUACCACGAGGAUAUCGUCUAUUUCACAUGAGGAUCACCCAUGUUAUCUUUGUUUCGUUUCGAGAAGGCGUGUUUU [JR_E5_Sub077] (puzzle: Exclusion 5) | – | – | 30.1 | –
11 | AUACCACGAGGAUAUCGUCUAUUUUACAUGAGGAUCACCCAUGUUAUCUUUGUAAUGUUUCGAGAAGGCGUGUUUU [JR_E5_Sub080] (puzzle: Exclusion 5) | – | – | 31.7 | –
12 | AUACCACGAGGAUAUCGUCUAUUUUACAUGAGGAUCACCCAUGUUAUCUUUGUUUUGUUUCGAGAAGGCGUGUUUU [JR_E5_Sub079] (puzzle: Exclusion 5) | – | – | 24.6 | –
13 | AUAGAGUCAGGAUAUACAGGUGGAGGAGAGCAGCAUAAGGAGUAGAAGGGACAUGAGGAUCACCCAUGUAAGUG [JR_Exclu4_Sub059] (puzzle: Exclusion 4) | – | – | 63.9 | apparent KD of MS2 coat protein [3]: 45.9 nM; apparent KD of MS2 coat protein [4]: 56.9 nM
14 | AUAGAGUUAGGAUAUGAGAGGCCGAACAUGAGGAUCACCCAUGUUCCGCGUGUUGCUCCCUUAGAAGGAACGAAUA [EX5 B.3] (Eterna round: R97, puzzle: Exclusion 5) | 14.7 | 22 | – | –
15 | AUAGUAGAAGUGAGGAUAUCGUAGAUUUUAGGAAACGAGAAGGCACAUGAGGAUCACCCAUGUAAGAUGGAGGU [JR_BMOE4_Sub051] (Eterna round: R96, puzzle: Brourd's mod of Exclusion 4) | 380 | 132 | – | apparent KD of MS2 coat protein [1]: 126 nM
16 | AUAGUAGAAGUGAGGAUAUCGUAGAUUUUAGGAAACGAGAAGGCACAUGAGGAUCACCCAUGUAAGAUGGAGGU [JR_BMOE4_Sub051] (puzzle: Brourd's mod of Exclusion 4) | – | – | 263 | apparent KD of MS2 coat protein [3]: 104 nM; apparent KD of MS2 coat protein [4]: 124 nM
17 | AUAGUCUGGCAAGGAUAUAGGAAAGGAAGUGUACUAGAAGGUGCGCAGACAUGAGGAUCACCCAUGUGAGCCGACGAAAUAAUA [PowerStrip EXNG 1.17] (Eterna round: R96, puzzle: Exclusion NG 1) | 523 | 141 | – | apparent KD of MS2 coat protein [1]: 88.5 nM
18 | AUAUAACAUGAGGAUCACCCAUGUGAGGAUAUGCGAUAUAUAAUAAUAAUAAUAAUAAGCAGAAGGCACAAAAU [My FIrst Design] (puzzle: Exclusion 1) | – | – | 78.7 | apparent KD of MS2 coat protein [3]: 60.2 nM; apparent KD of MS2 coat protein [4]: 71.7 nM
19 | AUAUACGGAGGAUAUACUUGAGGAUCACCCAAGUGGGAUCCCGUUUGGGCGGUAAAUAGUAGAAGGCCGACCCA [jl-ex3-4.41 ViennaUCT mod] (Eterna round: R97, puzzle: Exclusion 3) | 31.3 | 29 | – | –
20 | AUAUACGUUGAGGAUAUGCGAAUAAGUAUAGUUGCAGAAGGCGACACAUGAGGAUCACCCAUGUUCAUGGACAC [LRO-Ex6-03] (puzzle: Exclusion 6) | – | – | 26.6 | –
21 | AUAUAGCGAGGAUAUACAUGAGGAUCACCCAUGUGGUAGUAGAUACGGUAGGGCUAGUGUAGAAGGUGCUAUGA [EX3 #12] (Eterna round: R97, puzzle: Exclusion 3) | 450 | 231 | – | –
22 | AUAUAGUCAGGAUAUCGAAGUGUGUGUUGGUUUGUAAUUUACGAGAAGGGACAUGAGGAUCACCCAUGUAGGAA [JR_Exclusion4)Sub002] (Eterna round: R96, puzzle: Exclusion 4) | 49.3 | 44.1 | – | apparent KD of MS2 coat protein [1]: 33.8 nM
23 | AUAUAGUCAGGAUAUCGAAGUGUGUGUUGGUUUGUAAUUUACGAGAAGGGACAUGAGGAUCACCCAUGUAGGAA [JR_Exclusion4)Sub002] (puzzle: Exclusion 4) | – | – | 35.8 | –
24 | AUAUAUAGUGUGAGGAUAUGCUGGUCCUUGGAUCAGCAGAAGGCACAUGAGGAUCACCCAUGUAGUUAAAUAUA [Mat - Exclusion 4 - JL Mod - D19] (puzzle: Brourd's mod of Exclusion 4) | – | – | 32.1 | –
25 | AUAUAUAGUGUGAGGAUAUGCUGGUCCUUGGAUCAGCAGAAGGCACAUGAGGAUCACCCAUGUAGUUUAUUUUG [Mat - Exclusion 4 - JL Mod - D6] (puzzle: Brourd's mod of Exclusion 4) | – | – | 17.3 | –

From the supplement of paper PMC9170038
